Four molecules from publication PMC10201431, “SirA inhibits the essential DnaA:DnaD interaction to block helicase recruitment during Bacillus subtilis sporulation” (Nucleic Acids Research, 2022) can be followed below.

As a reminder, the stoichiometry N is the number of molecules, sites or subunits per partner or assembly.

Some results are limits rather than exact numbers.

Data set [1] concerns the target DnaD^L22A, purified recombinant (B. subtilis) (UniProt P39787). Nature of the data set: SEC-MALS; 20°C; 40 mM Tris-HCl pH 8, 500 mM NaCl, 1 mM EDTA, 20 mM imidazole, 2.5% glycerol; 100 μl injected.
Data set [2] deals with the molecule itself. Nature of the data set: cross-linking; BS3, 250 nM protein, 500x molar excess BS3, 6 min at 20°C, 20 mM HEPES pH 7.2, 100 mM NaCl, 10 mM magnesium acetate; SDS-PAGE and anti-DnaD immunoblot. On the technique in general: A western blot detects proteins with antibodies after separation by electrophoresis.
Data set [3] concerns the molecule itself. Put plainly: SEC-MALS; 20°C; 40 mM Tris-HCl pH 8, 500 mM NaCl, 1 mM EDTA, 20 mM imidazole, 2.5% glycerol; 100 μl injected. Background: In gel filtration, larger molecules generally elute earlier.

On to “DnaD^L22A, purified recombinant (from UniProt P39787 1-232) (natural protein)”, for which, in data set [1], the percent present as monomer is above 50% and the stoichiometry N turned out to be 4.

B1: DnaD^F6A, purified recombinant (natural protein, B. subtilis, UniProt P39787 1-232, looked up)
chain: MKKQQAIDMQEQGTSTIPNLLLTHYKQLGLNETELILLLKIKMHLEKGSYFPTPNQLQEGMSISVEECTNRLRMFIQKGFLFIEECEDQNGIKFEKYSLQPLWGKLYEYIQLAQNQTQERKAEGEQKSLYTIFEEEFARPLSPLECETLAIWQDQDQHDAQLIKHALKEAVLSGKLSFRYIDRILFEWKKNGLKTVEQAKIHSQKFRRVQAKQNEPQKEYKRQVPFYNWLEQ
notes: DnaD, B. subtilis 168CA, with F6A; made from pSF17 by Quickchange; source: E. coli BL21(DE3)-pLysS, purified (HisTrap, SUMO protease digestion, reverse HisTrap)
In the case of B1, the “stoichiometry N” value in data set [2] was found to be 2.

B2: DnaD, wild type, purified recombinant (natural protein, B. subtilis, UniProt P39787 1-232, looked up)
chain: MKKQQFIDMQEQGTSTIPNLLLTHYKQLGLNETELILLLKIKMHLEKGSYFPTPNQLQEGMSISVEECTNRLRMFIQKGFLFIEECEDQNGIKFEKYSLQPLWGKLYEYIQLAQNQTQERKAEGEQKSLYTIFEEEFARPLSPLECETLAIWQDQDQHDAQLIKHALKEAVLSGKLSFRYIDRILFEWKKNGLKTVEQAKIHSQKFRRVQAKQNEPQKEYKRQVPFYNWLEQ
notes: DnaD, B. subtilis 168CA; dnaD amplified from genomic DNA and cloned into pSF17; The printed theoretical mass of the tetramer (110 kDa) fits the whole protein; also called Wild-type DnaD; source: E. coli BL21(DE3)-pLysS, purified (HisTrap, SUMO protease digestion, reverse HisTrap)
For the molecule B2, the “stoichiometry N” value in data set [3] amounted to 4.

B3: DnaD^K3A, purified recombinant (natural protein, B. subtilis, UniProt P39787 1-232, looked up)
chain: MKAQQFIDMQEQGTSTIPNLLLTHYKQLGLNETELILLLKIKMHLEKGSYFPTPNQLQEGMSISVEECTNRLRMFIQKGFLFIEECEDQNGIKFEKYSLQPLWGKLYEYIQLAQNQTQERKAEGEQKSLYTIFEEEFARPLSPLECETLAIWQDQDQHDAQLIKHALKEAVLSGKLSFRYIDRILFEWKKNGLKTVEQAKIHSQKFRRVQAKQNEPQKEYKRQVPFYNWLEQ
notes: DnaD, B. subtilis 168CA, with K3A; made from pSF17 by Quickchange; source: E. coli BL21(DE3)-pLysS, purified (HisTrap, SUMO protease digestion, reverse HisTrap)
For B3, in data set [2], the “stoichiometry N” value came to 2.
